Reference: paper PMC6987202, “Exploring the therapeutic potential of modern and ancestral phenylalanine/tyrosine ammonia-lyases as supplementary treatment of hereditary tyrosinemia” (Scientific Reports, 2020)
One block for each molecule: values may come before it.

Experiments:
[1] = molecular target: PAL/TAL from Trichosporon cutaneum (TcPAL) (Trichosporon cutaneum); test: SEC-MALS; analytical SEC on Superdex200 Increase 10/300 GL in filtered PBS pH 7.4, 50 ul of ca. 1-2 mg/ml enzyme, 0.75 ml/min, miniDAWN MALS detector; self-association (tetramer and larger oligomers)
[2] = tested on: T1, MEGA_A3; test: p-coumaric acid formation at […] nm, Michaelis-Menten fit; type: biochemical, synthetic construct; settings: 50 mM Tris-HCl, pH 9.2, 37 °C; read-out: L-Tyr^a / KM^c
T1 construct: N-terminal 6xHis tag, E. coli BL21(DE3); tetramer

[3] = tested on: T2, PAML_A1; test: as above; type: biochemical, synthetic construct; settings: 50 mM Tris-HCl, pH 9.2, 37 °C; read-out: L-Tyr^a / KM^c
T2 construct: N-terminal 6xHis tag, E. coli BL21(DE3); tetramer

[4] = tested on: T3, MEGA_A1; test: as above; type: biochemical, synthetic construct; settings: 50 mM Tris-HCl, pH 9.2, 37 °C; read-out: L-Tyr^a / KM^c
T3 construct: N-terminal 6xHis tag, E. coli BL21(DE3); tetramer

[5] = tested on: T4, PAML_A2; test: trans-cinnamic acid formation at […] nm, Michaelis-Menten fit; type: biochemical, synthetic construct; settings: 50 mM Tris-HCl, pH 9.2, 37 °C; read-out: L-Phe^a / KM^c
T4 construct: N-terminal 6xHis tag, E. coli BL21(DE3); tetramer

[6] = tested on: T2, PAML_A1; test: as above; type: biochemical, synthetic construct; settings: 50 mM Tris-HCl, pH 9.2, 37 °C; read-out: L-Phe^a / KM^c
[7] = tested on: T1, MEGA_A3; test: as above; type: biochemical, synthetic construct; settings: 50 mM Tris-HCl, pH 9.2, 37 °C; read-out: L-Phe^a / KM^c
[8] = tested on: T3, MEGA_A1; test: as above; type: biochemical, synthetic construct; settings: 50 mM Tris-HCl, pH 9.2, 37 °C; read-out: L-Phe^a / KM^c
[9] = molecular target: PAL/TAL from Rhodotorula glutinis (RgPAL) (Rhodotorula glutinis); test: SEC-MALS; analytical SEC on Superdex200 Increase 10/300 GL in filtered PBS pH 7.4, 50 ul of ca. 1-2 mg/ml enzyme, 0.75 ml/min, miniDAWN MALS detector; self-association (tetramer and larger oligomers)
[10] = substrate: N[C@@H](Cc1ccccc1)C(=O)O; test: purified protein; type: biochemical, Rhodotorula glutinis; settings: 50 mM Tris-HCl, pH 9.2, 37 °C
[11] = substrate: N[C@@H](Cc1ccc(O)cc1)C(=O)O; test: purified protein; type: biochemical, Rhodotorula glutinis; settings: 50 mM Tris-HCl, pH 9.2, 37 °C

Molecule: N[C@@H](Cc1ccccc1)C(=O)O [L-phenylalanine]
Km [5]: 690 ± 150 µM
Km [6]: 4.48 ± 0.62 mM
Km [7]: 350 ± 30 µM
Km [8]: 3.83 ± 0.97 mM

B1: RgPAL (Rhodotorula glutinis) (protein)
chain: MAPSVDSIATSVANSLSNGLHAAAAANGGDVHKKTAGAGSLLPTTETTQLDIVERILADAGATDQIKLDGYTLTLGDVVGAARRGRSVKVADSPHIREKIDASVEFLRTQLDNSVYGVTTGFGGSADTRTEDAISLQKALLEHQLCGVLPTSMDGFALGRGLENSLPLEVVRGAMTIRVNSLTRGHSAVRIVVLEALTNFLNHGITPIVPLRGTISASGDLSPLSYIAASITGHPDSKVHVDGKIMSAQEAIALKGLQPVVLGPKEGLGLVNGTAVSASMATLALTDAHVLSLLAQALTALTVEAMVGHAGSFHPFLHDVTRPHPTQIEVARNIRTLLEGSKYAVHHETEVKVKDDEGILRQDRYPLRCSPQWLGPLVSDMIHAHAVLSLEAGQSTTDNPLIDLENKMTHHGGAFMASSVGNTMEKTRLAVALMGKVSFTQLTEMLNAGMNRALPSCLAAEDPSLSYHCKGLDIAAAAYTSELGHLANPVSTHVQPAEMGNQAINSLALISARRTAEANDVLSLLLATHLYCVLQAVDLRAMEFEHTKAFEPMVTELLKQHFGALATAEVEDKVRKSIYKRLQQNNSYDLEQRWHDTFSVATGAVVEALAGQEVSLASLNAWKVACAEKAIALTRSVRDSFWAAPSSSSPALKYLSPRTRVLYSFVREEVGVKARRGDVYLGKQEVTIGTNVSRIYEAIKSGRIAPVLVKMMA
notes: full-length codon-optimized gene, N-terminal 6xHis tag, pET22b(+), E. coli BL21(DE3); homotetramer; MIO cofactor from Ala-Ser-Gly
Km [10]: 1.35 ± 0.10 mM
kcat [10]: 8.95 ± 0.37 s⁻¹
kcat/Km [10]: 6660 ± 259 M⁻¹ s⁻¹
Km [11]: 0.28 ± 0.01 mM
kcat [11]: 1.71 ± 0.11 s⁻¹
kcat/Km [11]: 6300 ± 288 M⁻¹ s⁻¹

Continued, values first:

stoichiometry N [1]: 4
Molecule: PAL/TAL from Trichosporon cutaneum (TcPAL) (enzyme)

Km [2]: 50 ± 10 µM
Km [3]: 2.69 ± 0.01 mM
Km [4]: 400 ± 20 µM
Molecule: N[C@@H](Cc1ccc(O)cc1)C(=O)O [L-tyrosine]

stoichiometry N [9]: 4
Molecule: PAL/TAL from Rhodotorula glutinis (RgPAL) (enzyme)
